In patent US20070254313A1, “Gnal Splice Variant and Uses Thereof” (AstraZeneca AB, priority 2003, published 2007):

Legend:
Experiment in all cases: cell-based or functional assay
[1] = molecular target: human adenosine A2a receptor (ADORA2A) (human) (UniProt P29274)
[2] = molecular target: human dopamine D1A receptor (human) (UniProt P21728)
[3] = molecular target: human β2 adrenergic receptor (human) (UniProt P07550)

human adenosine A2a receptor (ADORA2A) (human), sequence (P29274 whole entry): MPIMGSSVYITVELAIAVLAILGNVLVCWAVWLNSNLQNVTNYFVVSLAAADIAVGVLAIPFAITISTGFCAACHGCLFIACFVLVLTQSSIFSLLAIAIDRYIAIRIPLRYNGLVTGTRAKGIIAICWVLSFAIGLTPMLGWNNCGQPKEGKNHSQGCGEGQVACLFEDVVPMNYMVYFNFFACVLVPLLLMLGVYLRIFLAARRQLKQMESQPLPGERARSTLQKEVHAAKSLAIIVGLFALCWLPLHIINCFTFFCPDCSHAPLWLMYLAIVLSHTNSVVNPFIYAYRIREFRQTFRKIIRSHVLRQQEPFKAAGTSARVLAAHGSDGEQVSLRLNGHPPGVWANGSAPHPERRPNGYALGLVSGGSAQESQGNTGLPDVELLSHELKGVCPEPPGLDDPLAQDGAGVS
human dopamine D1A receptor (human), sequence (P21728 whole entry): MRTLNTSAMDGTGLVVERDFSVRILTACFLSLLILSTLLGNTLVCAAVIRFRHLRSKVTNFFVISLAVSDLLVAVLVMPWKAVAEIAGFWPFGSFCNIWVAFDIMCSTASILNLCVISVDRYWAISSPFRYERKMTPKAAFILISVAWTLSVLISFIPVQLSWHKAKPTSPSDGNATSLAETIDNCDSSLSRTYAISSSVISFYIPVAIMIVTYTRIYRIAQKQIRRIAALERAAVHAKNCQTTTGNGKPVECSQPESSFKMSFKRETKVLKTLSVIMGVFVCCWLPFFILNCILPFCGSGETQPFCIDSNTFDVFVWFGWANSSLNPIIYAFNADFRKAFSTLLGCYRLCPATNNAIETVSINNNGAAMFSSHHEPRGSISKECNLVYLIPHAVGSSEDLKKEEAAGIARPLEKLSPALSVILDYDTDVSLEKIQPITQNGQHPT

induction of GTPγS agonist signal over baseline, A2a receptor co-expressed with XLGolf in Sf9 cells [1]: 3 fold
efficacy (Emax) of dopamine-induced [35S]-GTPγS binding, membranes of Sf9 cells co-expressing DRD1 and XLGolf [2]: 404%
magnitude of (-)-isoproterenol-induced GTPγS binding above the baseline, membranes of Sf9 cells expressing β2 receptor and XLGolf (% above the baseline) [3]: 700
B1: human XLGolf protein (protein)
chain: MGLCYSLRPLLFGGPGDDPCAASEPPVEDAQPAPAPALAPVRAAARDTARTLLPRGGEGSPACARPKADKPKEKRQRTEQLSAEEREAAKEREAVKEARKVSRGIDRMLRDQKRDLQQTHRLLLLGAGESGKSTIVKQMRILHVNGFNPEEKKQKILDIRKNVKDAIVTIVSAMSTIIPPVPLANPENQFRSDYIKSIAPITDFEYSQEFFDHVKKLWDDEGVKACFERSNEYQLIDCAQYFLERIDSVSLVDYTPTDQDLLRCRVLTSGIFETRFQVDKVNFHMFDVGGQRDERRKWIQCFNDVTAIIYVAACSSYNMVIREDNNTNRLRESLDLFESIWNNRWLRTISIILFLNKQDMLAEKVLAGKSKIEDYFPEYANYTVPEDATPDAGEDPKVTRAKFFIRDLFLRISTATGDGKHYCYPHFTCAVDTENIRRVFNDCRDIIQRMHLKQYELL
